Test results: the DeepSol protein solubility set

assay: soluble on expression in E. coli; label from the status in PepcDB or PDB records

**Q.** With “MGSDKIHHHHHHMFQLHHKLAADSFLVGDFPLSTCRLINDCQFPWLILVPRVSGIKELYELSEADQTQFLRESSWLSSQLAKTFQADKMNVAALGNQVPQLHFHHIVRYQNDMQWPNPVWGIPAVPYSKEVLAQMQQTLMMALRGHHQMPFDWQM” as the sequence, how does the “soluble on expression in E. coli” value read?
**A.** not soluble

**Q.** Which “soluble on expression in E. coli” value does the source give for “MAHHHHHHMSSDYSRVCAAEKASESHPPGYSRDALETELREGFRKQQQQVNKNRQVEQMALAKGLGESATTSLKDGFYIPHKVLPPLKPEEKKLFERIDIMKWCGRAGRKLEDSAVAPPPTLGEVPAEHQPMQVQEHQASTEADAEDALSTSVSSTASSLAALKDNSSEDVRHLLHQLRSTSRATSSLRDARAEVDDNIQAVEEALLRQSSPLSFEDLLDTAARLLAAMERGELTEDVVVPRGADVSTEKDEGSPGSPADSAEAPLSASGSTTRVLHGAVEVETYTRKHLLPRAYQVVAIAHTAEWILQYTMAYLRTTVAVNQDEAFTRLTLLARCVRLLGDIENFSSILLSLETKCEEYAGFAALKDTAEKHLGTLLDDVETSLDAILSAPFPSRRSRLLLLEGGIQKKLQRALLFLNEIDYSWTPHVRFHWAWKVQLLSASFHRIHGLISRKHMQCSMGFVDDSLYERVADTRITGRYMGASPVQPKVLRAQQVEYEKITEGLTFQQIGMSIKGVASLLIGEQLCMGARYILCQSTKQFDPVWGFHMDEISTAPTQEELSAMAAKIAVHAKEQLTARPTIARKEHSSSTFLTQM” here?
**A.** not soluble

**Q.** Which “soluble on expression in E. coli” value does the source give for “GVLPVEKCNLEDSACMTSAFQQALPTFVAGLPDHGVEVMDVLDLDDFAFDLSGLQFTLKEGKLKGLKGAVIDNVKWDLKKKNIEVDFHLDATVKGHYTAGGRILILPITGDGQMKLKLKNIHIHLVVSYEMEKDAEGVDHVIFKKYTVTFDVKDNAQFGLTNLFNGNKELSDTMLTFLNQNWKQVSEEFGKPVMEAAAKKIFKNIKHFLAKVPIAEIANV” here?
**A.** soluble

**Q.** With “MALDNRHRLIVGKLAEAFGLPENVIEKTLTQDKQAVNSFFTPAGPPSLVFVYQVKEDKLKDGSVGPVDNKPTLHRIGPHERIHNKGVYFTRLNPKGINEKTLEADMGSGELSGGALENFKAIVSDLYLPIMQEQQQWGKMSTEYLEDFLSSTAKFGSMLTEAVATVSGGVELRMPDPRYIDQYGDLRPAGITQAAGDDDTLQEMEECLTEWCREAELLLNQTNKIKDGEEPGPDTELEYWRTRMSNFNSITEHLKTKECKLVLGICSHAKTKAYLRWRALDVQITDAANESKDNVKYLATLEKSMEPMYQGRVTDITESLPALMTNVRMMYTIARFYSTAEHMTRLFTKITNQLVRRCKEQIMENGKIWDQDKVTLIGNMKVSVELANVYRQQYRLAKETLAAQPKSKQFDFDEQAIFLKFDLFSKRLHKLIDMFTTIHQFSSLEQHTHIEGLDTMLKSLNNIIDDVKRKPYDLLDYSRNAFDRDFLEFNVQINDLELQLQGFVNASFEHITSTEHALSLLAQFQAIMQRETLQQDLENKYMVIFQNYAKDLDAVQKLYEKNKYEPPVPRNAPPVAGNIMWARQLLRRIEAPMQRFAQNKNLLAAKESKKIIKTYNKVAKALIEFETLWHQAWIKSIEQCKAGLAAPLLVQHPDTGKILVNFDKEIMQLVREAKYMQRFNIAVPESAQMVLLQEEKFKFYHNQLTHLVREYEHVLGRVAPTIKPLLRPHLDDMERKIAPGFAVLTWTSLNIDGYLHRFKQGLARLEELVRKVVDLTENRVDSNLGAISSTLLVELPTDRSFTYEEFVSTQNRFQKKQAELLAIRNEEVRRAIEDLLTLVRNYPRENTEDVLDEKEVSLFVRHYSKNMYNAIMQCTLNSLQAMKRRLGSKTTTGIFFMERPFFDVDVELKVPSVCMNPTLEEIQAAINQCAKKVLTISKQLPAWGMDNVATYHEMIAGDKEVVKAVLRLTGSVEGIKTQVGEYIRTFDKYDFLWKEDLQAAYDHFMRSNPTLEAFEAELKKYMAIETEVTMINGVNNIGALSLETMPLKNSLKAEAVSWKTQFAQNLHKQCSDDLKAFDNYIRDTNSKFHRKIEDLEDVRNVMAVLKEVREKESEIDNLIGPIEEMYGLLMRYEVRVPKEETTMVSDLRYGWKKLKKVATEVSDNLTRLQVGFKRELIKEVKTFVVDAQMFRKDWEANGPMVPGLDPQEAVDRLRKFQQMFEVRKRKWENYSSGEELFGLPVTQYPELEQTEKEIQMLDRLYSLYVAVITTIKGYGDYFWVDVVEKIDEMGEQVQQYQNQSKKLPKALRDWPAYNACRKTIDDFLEMLPLFQALTHKSMRERHWKEVMRVTGHELNLAEDHFKLQHLLDCNVLRYREDIEDLTGAAVKEEIIEVKLNQLKADWATANLAFAEYKNRGPVILKPSDTSELMEKLEESQMTLGSMATNRYSAPFRDEVQAWSIKLSTVSEIIEQWLMVQSMWQYMEAVF” as the sequence, how does the “soluble on expression in E. coli” value read?
**A.** not soluble

**Q.** With “MKSTDNSKPVPFFRGKLKFFQPKEHKISVDLVLFLSKIKPPKRNYRIIDLGAGFGFLSITLAKKYGVKVVAFEYDERMVKLLRKNVKLNGVEHLVEVVEGDIKEIEKHLSRGSFNLVVSNPPFYPINYSPNPEPYHFEVYATLKDFVRASSYLLKDGGELYLLSPCFRLYELTEYLSNFNLPLRKLSLIYPTPLKRARLAITVSVKNVKGQLECDKPLIINKENGEYTEEVKQLLENFL” as the sequence, how does the “soluble on expression in E. coli” value read?
**A.** soluble

**Q.** For “MAHHHHHHMEDITWVRSEVHSWIYDNLRAKWTSLVRQPTKLRTMFSGYRSTPTFVDRVLRRVGIANEIALTAMLRTWGPPELHAFVALYVRLRFPMIVALNKADLSTAADVAAALRQAYPHEVFVLMTARIEWLALQLSRKGYVDYTPGAASLSLKADCGEGADLEKRVRQELHDVTSFFRTTTSSPERLSSSVLRLTTTGVQDVLAAAMEACGVMLVYPVRAFHPVTSLAHCLTFKLGSSAERVFNALVHLQLLEGKLARFEMIDLAPVKRQLHQQLLASLATAPSNEASTPVPAQQQQCAVALPTSVQTLRKTEVIRSSAVLARILSNKRQLA”, which “soluble on expression in E. coli” value is on record?
**A.** not soluble

**Q.** For “MGSDKIHHHHHHMEHIQSSIEKILNRPDVAESVRAIHQRVLSHPGVIMFLRTHPEIDQRMIERGMLKLNEYAEQMNGNQIIEKKAVIEGYQPVLHLEKGQIMVAYEKTQALRDRENERALEKKFKSLFLPDEVRDANFSDFDLTTTDRKLALRAASQFLNTVRSKQQVKGLYLHGSFGVGKTYLLAAIGNALKKERVATILVHAPGFVSEAKRRIRSDSFDTFLESFQTVPVLLIDDIGAESISPWVRDELFGIILQYRMMHRLPTLFSSNLSYDELELHFGITNDQGDKLKAMRLMERIRTTTNPVEFLGENRRRY”, which “soluble on expression in E. coli” value is on record?
**A.** not soluble

**Q.** For “GSERVNYKPGMRVLTKMSGFPWWPSMVVTESKMTSVARKSKPKRAGTFYPVIFFPNKEYLWTGSDSLTPLTSEAISQFLEKPKPKTASLIKAYKMAQSTPDLDSLSVPS”, which “soluble on expression in E. coli” value is on record?
**A.** soluble

**Q.** With “MSKTLKIAIDAGHGPQTPGKRCPDDSMREFHFNSVVARYVRDGLAQYEGVQTMFTHADDGSRDVPLQERTDRANAWGADVFVSIHANASGNGWSDARGIETYVYTTRPAQAVKLAEAVQRNLIKETGLKDRGVKAENFHVLRETKMTAILCECGFMTNREEAELLKSDAYRRKCAKAIVAGIAEVYDLTLKQQAHASEPTYSGKFKDVPDGHYAKGATERLAEKGIMNGIGNGLFGFGKPITREDAAVIVDRAITYLEQKISQK” as the sequence, how does the “soluble on expression in E. coli” value read?
**A.** not soluble

**Q.** With “MAHHHHHHMSIFGVSSYFLWTQKGQTVLPLVRGSGFVMSFQQLNTFYSYHVMSAAHVTCPVKHRKLYGDTIGLKAIGERHISTRLLIPDEATHRVQSSFELEFRQQYMPNTDVASLRLCKEEQFKKAMLPPQDSGTGTASPLQVILPDLDRIEEGDELILCGVHTEEERANPNDDGLVLNPMRLIATCKAALLSLDYGTVLLASIDGPAEEARESGSGSAASASRPVTVPPLPLSMCGGPVLRRSSGRCVGVIAARVMANAPPRDPQSTSLYQDPYLDISEHIALHAHWPLDVAFVPIGEFYDPLRRCEM” as the sequence, how does the “soluble on expression in E. coli” value read?
**A.** not soluble

**Q.** Which “soluble on expression in E. coli” value does the source give for “GARIKTLSVSRPIIYGNTAKKMGSVKPPNAPAEHTHLWTIFVRGPQNEDISYFIKKVVFKLHDTYPNPVRSIEAPPFELTETGWGEFDINIKVYFVEEANEKVLNFYHRLRLHPYANPVPNSDNGNEQNTTDHNSKDAEVSSVYFDEIVFNEPNEEFFKILMSR” here?
**A.** soluble

**Q.** Which “soluble on expression in E. coli” value does the source give for “DALHDQASALFKPIPEQVTELRGQPISEQQRELGKKLFFDPRLSRSHVLSCNTCHNVGTGGADNVPTSVGHGWQKGPRNSPTVFNAVFNAAQFWDGRAKDLGEQAKGPIQNSVEMHSTPQLVEQTLGSIPEYVDAFRKAFPKAGKPVSFDNMALAIEAYEATLVTPDSPFDLYLKGDDKALDAQQKKGLKAFMDSGCSACHNGINLGGQAYFPFGLVKKPDASVLPSGDKGRFAVTKTQSDEYVFRAAPLRNVALTAPYFHSGQVWELKDAVAIMGNAQLGKQLAPDDVENIVAFLHSLSGKQPRVEYPLLPASTETTPRPAE” here?
**A.** soluble

**Q.** For “GPGHMEGLRCVVLPEDLCHKFLQLAESNTVRGIETCGILCGKLTHNEFTITHVIVPKQSAGPDYCDMENVEELFNVQDQHDLLTLGWIHTHPTQTAFLSSVDLHTHCSYQLMLPEAIAIVCSPKHKDTGIFRLTNAGMLEVSACKKKGFHPHTKEPRLFSICKHVLVKDIKIIVLDLR”, which “soluble on expression in E. coli” value is on record?
**A.** soluble

**Q.** With “MGSDKIHHHHHHMKLGLLTAPFAETPLADVAAWASSAGFEALEIACWPKTSGATRRYAGTSHIDAASTSPAQAKEITASLAEKHLTISGLGYYPNPLHPDAAHREAVIGHLKKVIELAANMGVPVVNTFCGGDASKTVDVNWQDALKVWPEIVAFARGHGIKLAFENCPMIFSYDEWPGGHNIAYSPQVWRRILETWGGDIGMNFDPSHLVWQMIDQARFIREFGPYMLHVHAKDLMIDHDGLYERGILSAGIGWQVPRMPGLGDVDWSGFFSGLYRAGYDGSVIIEHEDRRFEGSDEQVKRGFLLARDVLRPYVK” as the sequence, how does the “soluble on expression in E. coli” value read?
**A.** not soluble

**Q.** Which “soluble on expression in E. coli” value does the source give for “GPGSMQPRKTVKKVDVEPSPEEDAELLPHLKVSAKWSERAANNGKSLSQVQFLLGALGKQLEDCNKELASVYANADLLSSLRITEYRQRNTPGGLLTPTRKARTKRNASTRPVARQQLDENSTEALIAAMDEKKRARVTAALIAFFKRDMQEQNSPAYQNASTPVPQGANHSSTRTSQTLGRIPSANSHTMLCESNKGNQPSCSNGNELPTLLSETQQQQLRRHRDIPPELWDEMAKLRLRRLSLEEKIGSLLSNINAQTERFGLLMEVQGVNSYSTESVNRAIEMIRQKRA” here?
**A.** soluble

**Q.** With “MTEASIKLGTTSDKLEYEVIDKGSNGFLGIGSRDAVIKVKKAEASVEDEIREFLDSVFKAMKLEVTIDIKVDEDNRNVDVELNGPEMGVLIGKRGQTLDSLQYLTNLAINKQSENYYRVKIDTEDYRKRRRETLENLAKNISFKVKRTKRPVSLEPMNPFERRVIHSALQNDRFVETHSEGDEPYRHVVVTLKK” as the sequence, how does the “soluble on expression in E. coli” value read?
**A.** not soluble

**Q.** With “MNVVIVRYGEIGTKSRQTRSWFEKILMNNIREALVTEEVPYKEIFSRHGRIIVKTNSPKEAANVLVRVFGIVSISPAMEVEASLEKINRTALLMFRKKAKEVGKERPKFRVTARRITKEFPLDSLEIQAKVGEYILNNENCEVDLKNYDIEIGIEIMQGKAYIYTEKIKGWGGLPIGTEGRMIGILHDELSALAIFLMMKRGVEVIPVYIGKDDKNLEKVRSLWNLLKRYSYGSKGFLVVAESFDRVLKLIRDFGVKGVIKGLRPNDLNSEVSEITEDFKMFPVPVYYPLIALPEEYIKSVKERLGL” as the sequence, how does the “soluble on expression in E. coli” value read?
**A.** soluble

**Q.** Which “soluble on expression in E. coli” value does the source give for “MCMVMREYNKERLRKAIELWYREEGVRIIKDRVEHYLKFYPVKPRSIKVKEQKRRWGSCTYYNDLLFNWRCIMAPLKVVDYIVVHEMTHMVHKDHSKNYWNFVSKIIPNYKEQKMWLKENGIIMDIMAGDPLEHHHHHH” here?
**A.** soluble

**Q.** For “MASIGRAIVRVPKNVKKGQIFKVQMVIIHPMETGLRKDPKTGKKIPAHYITHVDLYFNGKLVTKINTSPGISKNPYFAIKMKAEEAGTLKIVYEDNKGGKWEKEVKINVA”, which “soluble on expression in E. coli” value is on record?
**A.** not soluble
